Assay results as given in patent publication US20150359843A1 (AGENCY FOR SCIENCE TECHNOLOGY AND RESEARCH, published 2015).
No end group written: not given here.

Biological target: T1, p53 wt-FL (human, UniProt P04637 1-393)
T1 construct: mature; Full-length protein made by in vitro transcription/translation, used unpurified in the IVT mixture; also called wild-type full length p53; IVT synthesized p53 wt-FL
Assay: ELISA conformation 1: biotinylated peptide on streptavidin plate, IVT p53 wt-FL added, detected with DO-1, Bp53 10.1 or CM1 and HRP secondary; ctrl = no p53 extract

T1 sequence (P04637 whole entry): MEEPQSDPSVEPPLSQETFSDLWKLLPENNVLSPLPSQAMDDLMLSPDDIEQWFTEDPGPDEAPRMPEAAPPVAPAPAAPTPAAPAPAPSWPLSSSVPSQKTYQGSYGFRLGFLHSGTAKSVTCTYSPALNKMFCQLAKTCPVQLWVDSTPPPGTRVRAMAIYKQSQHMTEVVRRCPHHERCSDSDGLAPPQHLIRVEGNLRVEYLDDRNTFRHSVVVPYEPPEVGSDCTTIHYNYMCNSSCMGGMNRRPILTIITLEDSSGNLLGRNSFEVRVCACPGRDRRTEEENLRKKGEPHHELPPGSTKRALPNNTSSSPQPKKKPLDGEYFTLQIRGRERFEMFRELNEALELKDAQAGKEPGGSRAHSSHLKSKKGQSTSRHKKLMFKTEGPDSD

| Binder | binding result |
| --- | --- |
| MPHLMAC (also: biotin at N- or C-terminus in ELISA forms, also called peptide MPH) [Pap-MPH] | no binding |
| SPTTNH (also: biotin at N- or C-terminus in ELISA forms only, also called peptide SPT; Peptide-P1) [Pap-SPT] | no binding |
